From patent publication US20190300618A1 (Merck Sharp & Dohme, published 2019) come the findings set out here.

Substitutions are numbered along the chain they refer to.

The target in experiment [1] is human CD27 (A59T), expressed on cells (human) (UniProt P26842). Put plainly: flow cytometry, transiently transfected CHO-K1; empty vector: + 5.32.
The target in experiment [2] is human CD27 (wild type), expressed on cells (human) (UniProt P26842). Described as above.
The target in experiment [3] is human CD27 (A59T), expressed on cells (human) (UniProt P26842). Put plainly: flow cytometry, transiently transfected CHO-K1; empty vector: GM FITC 212. (In general: A flow cytometer gives signals particle by particle.)
Experiment [4] deals with human CD27 (wild type), expressed on cells (human) (UniProt P26842). The experiment is described as above.
For experiment [5], the target named is T1, human CD27 (wild type), expressed on cells (human, UniProt P26842 21-260).
T1 construct: on transfected CHO-K1 / CHOK1 cells, transfected HEK293FT reporter cells or primary human T cells; also called hCD27; HsCD27
Nature of the experiment: flow cytometry on primary T cells.
Description: Labeled cells were washed by re-suspending them in 150 ul of staining buffer (SB) followed by centrifugation at 300 g for 5 minutes. Cells were then resuspended in 100 ul of SB containing primary anti-CD27 antibodies at various concentrations, incubated in the dark at 4° C. for 30 minutes, followed by washing and centrifugation steps as previously described. […] Cells were incubated for 30 minutes at 4° C. in the dark, followed by washing and centrifugation steps. Next, cells were stained with a cocktail of phenotypic antibodies for surface markers (CD3, CD4, CD8, CD11b) and incubated for 30 minutes at 4° C. in the dark, followed by washing and centrifugation steps. […] Samples were acquired in a LSR-Fortessa flow cytometer (BD Biosciences) using the high throughput sampler and data analyzed by FlowJo software (Tree Star Inc).

Take Fc-mCD70 (Fc fusion): the values for the cells in the + gate in experiment [1] and in experiment [2] were 52.5% and 58.9%, respectively. Further, the GM FITC in experiment [3] turned out to be 1060; in experiment [4], 1280.

B1: Humanized CD27 131A VH6/VL7-hIgG1 (antibody, V domains shown)
VH: EIQLVQSGAEVKKPGASVKVSCKASGYTFTNYGMNWVKQAPGQGLKWMGWINTNTGEPTYAEEFKGRFTFTLDTSISTAYMELSSLRSEDTAVYYCAREGDAMDYWGQGTTVTVSS
VL: EIVLTQSPATLSLSPGERATLSCSASSSVSYMHWYQQKPGQAPKRWIYDTSKLASGVPARFSGSGSGTSYSLTISSLEPEDFATYYCQQWNSYPFTFGQGTKLEIK
notes: human IgG1 constant region; also called hCD27.131A VH6VL7 hulgG1
Consider B1, for which the “EC50 above that of 131AVH6VL6-hIgG1” value in experiment [5] is no more than 10%.

B2: Humanized CD27 131A VH9/VL9-hIgG1 (antibody, V domains shown)
VH: B1 VH with K38R, I76A
VL: DIQLTQSPSTLSASVGDRVTITCSASSSVSYMHWYQQKPGKAPKRWIYDTSKLASGVPARFSGSGSGTDYTLTISSLQPEDFATYYCQQWNSYPFTFGQGTKLEIK
notes: human IgG1 constant region; also called hCD27.131A VH9VL9 hulgG1
B2: the “EC50 above that of 131AVH6VL6-hIgG1” value in experiment [5] was no more than 10%.

B3: Humanized CD27 131A VH7/VL8-hIgG1 (antibody, V domains shown)
VH: B1 VH with V20I, I76A, S77T, M81L, L83I
VL: B1 VL with L13A, A19V, S69D, L77M, T84V
notes: human IgG1 constant region; also called hCD27.131A VH7VL8 hulgG1
B3: the “EC50 above that of 131AVH6VL6-hIgG1” value in experiment [5] is no more than 10%.

B4: Humanized CD27 131A VH7/VL7-hIgG1 (antibody, V domains shown)
VH: B1 VH with V20I, I76A, S77T, M81L, L83I
VL: B1 VL
notes: human IgG1 constant region; also called hCD27.131A VH7VL7 hulgG1
Regarding B4, the “EC50 above that of 131AVH6VL6-hIgG1” value in experiment [5] was no more than 10%.

B5: Humanized CD27 131A VH6/VL8-hIgG1 (antibody, V domains shown)
VH: B1 VH
VL: B1 VL with L13A, A19V, S69D, L77M, T84V
notes: human IgG1 constant region; also called hCD27.131A VH6VL8 hulgG1
B5: the “EC50 above that of 131AVH6VL6-hIgG1” value in experiment [5] is no more than 10%.

B6: Humanized CD27 131A VH7/VL6-hIgG1 (antibody, V domains shown)
VH: B1 VH with V20I, I76A, S77T, M81L, L83I
VL: B1 VL with S69D, T84V
notes: human IgG1 constant region; also called hCD27.131A VH7VL6 hulgG1
As for B6, in experiment [5], the “EC50 above that of 131AVH6VL6-hIgG1” value is no more than 10%.

B7: Humanized CD27 131A VH8/VL7-hIgG1 (antibody, V domains shown)
VH: B1 VH with S88N
VL: B1 VL
notes: human IgG1 constant region; also called hCD27.131A VH8VL7 hulgG1
On to B7, for which the “EC50 above that of 131AVH6VL6-hIgG1” value in experiment [5] is no more than 10%.

B8: Humanized CD27 131A VH8/VL6-hIgG1 (antibody, V domains shown)
VH: B1 VH with S88N
VL: B1 VL with S69D, T84V
notes: human IgG1 constant region; also called hCD27.131A VH8VL6 hulgG1
As to B8, the “EC50 above that of 131AVH6VL6-hIgG1” value in experiment [5] is no more than 10%.

B9: Humanized CD27 131A VH8/VL8-hIgG1 (antibody, V domains shown)
VH: B1 VH with S88N
VL: B1 VL with L13A, A19V, S69D, L77M, T84V
notes: human IgG1 constant region; also called hCD27.131A VH8VL8 hulgG1
Consider B9, for which the “EC50 above that of 131AVH6VL6-hIgG1” value in experiment [5] was no more than 10%.
